In paper PMC11461925 (2024):

Biological target: Wu-1-RBD-I53-50A (SARS-CoV-2, UniProt P0DTC2 328-531)
Assay: BLI

B1: LY-CoV555 Fab (Fab, V domains shown)
VH: QVQLVQSGAEVKKPGSSVKVSCKASGGTFSNYAISWVRQAPGQGLEWMGRIIPILGIANYAQKFQGRVTITADKSTSTAYMELSSLRSEDTAVYYCARGYYEARHYYYYYAMDVWGQGTAVTVSS
VL: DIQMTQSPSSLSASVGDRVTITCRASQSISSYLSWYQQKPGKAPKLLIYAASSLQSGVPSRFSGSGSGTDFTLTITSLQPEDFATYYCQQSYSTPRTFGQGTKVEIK
Kd: 26.9 nM
